Experimental data as given in patent US20170247475A1 (Boehringer Ingelheim, published 2017).

T1: recombinant human VEGF121 (human, UniProt P15692-9 27-147)
T1 construct: also called rhVEGF121; hVEGF121
T1 sequence (looked up): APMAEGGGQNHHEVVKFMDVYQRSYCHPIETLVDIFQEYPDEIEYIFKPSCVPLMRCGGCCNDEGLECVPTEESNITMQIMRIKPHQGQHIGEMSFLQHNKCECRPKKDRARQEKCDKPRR

T2: human VEGF-D (human, UniProt O43915 93-201)
T2 construct: also called hVEGF-D
T2 sequence (looked up): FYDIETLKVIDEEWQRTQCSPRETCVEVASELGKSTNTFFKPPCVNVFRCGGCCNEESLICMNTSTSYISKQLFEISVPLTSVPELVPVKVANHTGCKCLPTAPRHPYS

T3: recombinant mouse VEGF164 (mouse, UniProt Q00731-2 27-190)
T3 construct: biotinylated in the mVEGFR2 AlphaScreen; also called rmVEGF164; mVEGF164
T3 sequence (looked up): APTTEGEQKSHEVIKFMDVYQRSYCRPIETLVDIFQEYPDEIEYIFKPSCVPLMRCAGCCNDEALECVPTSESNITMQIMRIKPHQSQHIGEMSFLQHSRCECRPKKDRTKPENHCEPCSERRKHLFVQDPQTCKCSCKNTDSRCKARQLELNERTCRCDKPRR

T4: human PIGF (human, UniProt P49763-2 21-149, limits assumed)
T4 construct: also called hPIGF; PLGF
T4 sequence (looked up): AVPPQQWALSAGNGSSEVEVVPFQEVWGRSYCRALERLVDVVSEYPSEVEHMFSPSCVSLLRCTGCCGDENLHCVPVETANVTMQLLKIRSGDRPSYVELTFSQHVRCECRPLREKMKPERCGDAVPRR

T5: human VEGF-B (human, UniProt P49765-2 22-188, limits assumed)
T5 construct: also called hVEGF-B
T5 sequence (looked up): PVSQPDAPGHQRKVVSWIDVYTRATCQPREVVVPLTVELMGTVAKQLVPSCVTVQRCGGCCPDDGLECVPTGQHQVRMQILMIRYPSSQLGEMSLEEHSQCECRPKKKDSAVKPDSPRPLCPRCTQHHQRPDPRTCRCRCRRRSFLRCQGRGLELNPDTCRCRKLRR

T6: human VEGF-C (human, UniProt P49767 103-227)
T6 construct: also called hVEGF-C
T6 sequence (looked up): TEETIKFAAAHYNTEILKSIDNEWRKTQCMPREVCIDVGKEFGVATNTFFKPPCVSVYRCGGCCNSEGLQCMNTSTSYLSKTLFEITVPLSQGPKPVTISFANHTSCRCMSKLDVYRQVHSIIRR


Assays:
[1] = target: T7, recombinant human VEGF165 (human, UniProt P15692-4 27-191); experiment: binding ELISA, coated rhVEGF165
T7 construct: also called hVEGF165; rhVEGF165

[2] = target: T1, recombinant human VEGF121; experiment: binding ELISA, coated rhVEGF121
Protocol: Binding to recombinant human VEGF121 is assessed via a solid phase binding ELISA. Briefly, recombinant human VEGF121 (R&D Systems, Minneapolis, Minn., USA) is coated overnight at 4° C. at 1 μg/mL in a 96-well MaxiSorp plate (Nunc, Wiesbaden, Germany). Wells are blocked with a casein solution (1% in PBS).

[3] = target: T7, recombinant human VEGF165; experiment: SPR Biacore T100, Two State Reaction model; KD = kd1/ka1 * (kd2/(kd2 + ka2))
Protocol: (§1) Samples are injected for 2 min and allowed to dissociate up to 20 min at a flow rate of 45 μI/min. In between sample injections, the chip surface is regenerated with 100 mM HCl. HBS-EP+(Hepes buffer pH7.4+EDTA) is used as running buffer. Binding curves are fitted using a Two State Reaction model by Biacore T100 Evaluation Software v2.0.1.
(§2) ^{(a)}KD = kd1/kₐ₁ * (kd2/(kd2 + kₐ₂)) ^{(b)}Curves are fitted using a Two State Reaction model by Biacore T100 Evaluation Software v2.0.1

human VEGF-D = target: T2, human VEGF-D; experiment: binding ELISA on coated VEGF D
Protocol: (§3) Binding to VEGFB, VEGFC, VEGFD and PIGF is assessed via a solid phase binding ELISA. In brief, VEGFB, VEGFC, VEGFD and PIGF (R&D Systems, Minneapolis, Minn., USA) are coated overnight at 4° C. at 1 μg/mL in a 96-well MaxiSorp plate (Nunc, Wiesbaden, Germany). Wells are blocked with a casein solution (1% in PBS). […] As positive controls serial dilutions of the appropriate receptors are taken along and detected with horseradish peroxidase (HRP)-conjugated goat anti-human IgG, Fc specific antibody (Jackson Immuno Research Laboratories Inc., West Grove, Pa., USA) and a subsequent enzymatic reaction in the presence of the substrate TMB (3,3′,5,5′-tetramentylbenzidine) (Pierce, Rockford, Ill., USA).

[4] = target: T7, recombinant human VEGF165; experiment: hVEGF165/hVEGFR2-Fc competition AlphaScreen
Protocol: (§4) Finally, streptavidin donor beads (20 μg/ml) are added and after 1 hour of incubation in the dark, fluorescence is measured on the Envision microplate reader.

[5] = target: T7, recombinant human VEGF165; experiment: VEGF/VEGFR1 competition AlphaScreen
Protocol: as §4

[6] = target: T3, recombinant mouse VEGF164; experiment: binding ELISA on coated mouse VEGF164
Protocol: Cross-reactivity to mouse VEGF164 is determined using a binding ELISA. […] Wells are blocked with a casein solution (1% in PBS). […] A mouse VEGF164 reactive mAb is included as positive control.

human PIGF = target: T4, human PIGF; experiment: binding ELISA on coated PIGF
Protocol: as §3

[7] = target: T7, recombinant human VEGF165; experiment: VEGF/VEGFR2 competition AlphaScreen
Protocol: as §4

human VEGF-B = target: T5, human VEGF-B; experiment: binding ELISA on coated VEGFB
Protocol: as §3

VEGF [8] = experiment: cell-based or functional assay
[9] = target: T7, recombinant human VEGF165; experiment: kd1; SPR Biacore T100, hVEGF165 on chip, Two State Reaction model
Protocol: as §1, §2

[10] = target: T7, recombinant human VEGF165; experiment: SPR Biacore T100, hVEGF165 on chip, Two State Reaction model
Protocol: as §1, §2

[11] = target: T7, recombinant human VEGF165; experiment: hVEGF165/hVEGFR2-Fc competition ELISA
[12] = target: T7, recombinant human VEGF165; experiment: VEGF165/hVEGFR1-Fc competition AlphaScreen
Protocol: as §4

human VEGF-C = target: T6, human VEGF-C; experiment: binding ELISA on coated VEGFC
Protocol: as §3

VEGF [13] = experiment: cell-based or functional assay; remark: listed apart in the source
[14] = target: T7, recombinant human VEGF165; experiment: ka1; SPR Biacore T100, hVEGF165 on chip, Two State Reaction model
Protocol: as §1, §2

[15] = target: T7, recombinant human VEGF165; experiment: VEGF165/hVEGFR1-Fc competition ELISA

| Binder | EC50 [1] | EC50 [2] | Kd [3] | binding result (human VEGF-D) | % inhibition [4] | IC50 [4] | % inhibition [5] | IC50 [5] | binding result [6] | binding result (human PIGF) | IC50 [7] | binding result (human VEGF-B) | % inhibition, VEGF HUVEC Erk phosphorylation assay (VEGF [8]) | IC50 (nM), VEGF HUVEC Erk phosphorylation assay (VEGF [8]) | koff [9] | ka2 [10] | kd2 [10] | % inhibition [11] | IC50 [11] | % inhibition [12] | further results |
| --- | --- | --- | --- | --- | --- | --- | --- | --- | --- | --- | --- | --- | --- | --- | --- | --- | --- | --- | --- | --- | --- |
| VEGFBII024 (VHH, biparatopic bivalent VHH in one chain; also called VEGFBII23B04-40GS-86H09; VEGFBI024) EVQLVESGGGLVQTGDSLRLSCEVSGRTFSSYSMGWFRQAQGKEREFVVAISKGGYKYDSVSLEGRFTISKDNAKNTVYLQINSLKPEDTAVYYCASSRAYGSSRLRLADTYEYWGQGTQVTVSSGGGGSGGGGSGGGGSGGGGSGGGGSGGGGSGGGGSGGGGSEVQLVESGGGLVQAGGSLRLSCTASGSAFKSYRMGWFRRTPGKEDEFVASISWTYGSTFYADSVKGRFTMSRDKAKNAGYLQMNSLKPEDTALYYCAAGAQSDRYNIRSYDYWGQGTQVTVSS | 0.32 nM | 0.325 nM | 0.47 nM | no binding (tested: 5e-7 M) | 100% | 0.05 nM | 100% | 0.046 nM | binds | no binding (tested: 5e-7 M) | 0.012 nM | no binding (tested: 5e-7 M) | 94% | 0.23 nM | 0.013 s⁻¹ | 0.026 s⁻¹ | 0.00028 s⁻¹ | 100% | 0.292 nM | 98% | IC50 [12]: 0.069 nM; binding result (human VEGF-C): no binding (tested: 5e-7 M); % inhibition, VEGF HUVEC proliferation assay (VEGF [13]): 96%; IC50 (nM), VEGF HUVEC proliferation assay (VEGF [13]): 0.38 nM; kon [14]: 300000 M⁻¹ s⁻¹; % inhibition [15]: 92%; IC50 [15]: 0.326 nM |
| VEGFBII025 (VHH, biparatopic bivalent VHH in one chain; also called VEGFBII10E07-40GS-23B04) EVQLVESGGGLVQAGGSLRLSCAASGRTFSNYAMGWFRQAPGKERVLVADISSSGINTYVADAVKGRFTISRDNAKNTVYLQMNSLKPEDTAVYYCAASAWWYSQMARDNYRYWGQGTQVTVSSGGGGSGGGGSGGGGSGGGGSGGGGSGGGGSGGGGSGGGGSEVQLVESGGGLVQTGDSLRLSCEVSGRTFSSYSMGWFRQAQGKEREFVVAISKGGYKYDSVSLEGRFTISKDNAKNTVYLQINSLKPEDTAVYYCASSRAYGSSRLRLADTYEYWGQGTQVTVSS | 0.668 nM | 0.475 nM | 1.1 nM | no binding (tested: 5e-7 M) | 100% | 0.051 nM | 82% | 0.039 nM | binds | no binding (tested: 5e-7 M) | 0.051 nM | no binding (tested: 5e-7 M) | 99% | 0.23 nM | 0.017 s⁻¹ | 0.018 s⁻¹ | 0.00037 s⁻¹ | 100% | 0.577 nM | 82% | IC50 [12]: 0.071 nM; binding result (human VEGF-C): no binding (tested: 5e-7 M); kon [14]: 330000 M⁻¹ s⁻¹ |
